No end group written: not given here.

IC50 and fold binding compared to the library (R0), phage titer data for five molecules are collected here from patent US20110143993A1, “ENDOTHELIAL BASEMENT MEMBRANE TARGETING PEPTIDE LIGANDS” (The Brigham and Women's Hospital, Inc., priority 2009, published 2011).

The target of experiment [1] is Matrigel growth factor reduced LDEV free (basement membrane extract rich in collagen IV and laminin). Nature of the experiment: competition ELISA: synthetic peptide (10^-5-10^-10 M) against 10^9 pfu cognate phage clone on Matrigel-coated plate, anti-M13/ABTS. For orientation: ELISA stands for enzyme-linked immunosorbent assay.
Experiment [2] shares this target. Put plainly: competition of phage-displayed peptide against synthetic peptide on Matrigel.
For experiment [3], the target named is human collagen IV (human) (UniProt P02462). Nature of the experiment: phage titer count of eluted phage, input 10^12/mL p.f.u., against random library R0, n=3.

By IC50 is commonly meant the concentration needed to halve the response being measured. Read a high IC50 as weaker potency in that assay. KLWVLPKGGGC-NH2 [synthetic peptide modeled after phage clone C-11 (…-Am)]: the IC50 in experiment [1] was found to be 117 nM; in experiment [2], 114 nM. For KLWVLPK (peptide, not shown: large carriers) [phage clone C-11 (KLWVLPK displayed on pIII of M13 phage)], the fold binding compared to the library (R0), phage titer in experiment [3] came to 900 fold. As to KVWSLPQGGGC-NH2 [synthetic peptide modeled after phage clone A-8 (KVWSLPQ with C-terminal GGGC linker, amidated)], the IC50 in experiment [1] is 1200 nM. For the molecule KIWKLPQGGGC-NH2 [synthetic peptide modeled after phage clone C-10 (KIWKLPQ with C-terminal GGGC linker, amidated)], in experiment [1], the IC50 amounted to 917 nM. With KIFVWPYGGGC-NH2 [synthetic peptide modeled after phage clone A-9 (KIFVWPY with C-terminal GGGC linker, amidated)], the concentration for half-maximal inhibition (IC50) in experiment [1] was found to be 551 nM.
